Assays:
[1] = system: platelet GPIbα; assay: Western blot/FACS of endoprotease-cleaved platelet GPIbα and glycocalicin; format: binding, human; settings: immunoblots and FACS
Description: (§1) Immunoblotting and endoprotease cleavage techniques were used to identify the epitope for Y1 on the surface membrane of platelets.
(§2) The enzyme O-Sialoglycoprotein endoprotease from Pasteurella haemolytica (Cedarlan CLE 100) selectively cleaves human platelet GPIb and specifically cleaves only proteins containing sialylated, O-linked glycans. […] This enzyme has been reported to cleave GPIb, which is heavily O-glycosylated, but not GPIIb-IIIa or other receptors on platelets. GPIbα was digested with O-Sialoglycoprotein endoprotease in order to further establish the binding of Y1 to the molecule.
(§3) Mocarhagin [Sigma L4515a] is a cobra venom metalloproteinase that cleaves platelet GPIbα specifically at a single site between residues glu-282 and asp-283, thereby generating two stable products: a ˜45-kDa N-terminal fragment (His1-Glu282), which is released into the supernatant, and a membrane-bound ˜95 kDa C-terminal fragment.
(§4) Cathepsin G (Sigma C4428), a neutrophil serine protease, cleaves glycocalicin at a first cleavage site between residues Leu-275 and Tyr-276 and at a second cleavage site between residues Val-296 and Lys-297. Cathepsin G treatment of glycocalicin generates two N-terminal fragments: a small N-terminal 42 kDa fragment (His1-Leu275), a large N-terminal 45 kDa N-terminal fragment (His1-Val-296), and corresponding ˜95 kDa C-terminal fragments. (FIG. 1).
(§5) For mocarhagin digestion, 10^8 washed platelets in TS buffer (0.01 M Tris, 0.15 M sodium chloride, pH 7.4) containing 1 mM calcium chloride were treated with 12 μg/ml mocarhagin (final concentration) for 1 hour at 22° C. and digestion was stopped by adding EDTA to 0.01 M.
(§6) 10^6 platelets in 0.1 M Tris buffer pH 7.4 containing 0.2% albumin and protease inhibitors (10 μM leupeptin, 0.24 mM PMSF) was incubated with 0.14 mg/ml O-Sialoglycoprotein endoprotease (final concentration) for 45 min at 37° C. and digestion was stopped by adding sample buffer and boiling. The sample buffer used contained 3% SDS, 12% glycerol, 50 mM Tris HCl, 2% β-mercaptoethanol, and 0.03% bromphenol blue.
(§7) For mocarhagin digestion, glycocalicin in TS buffer containing 1 mM calcium chloride was incubated with 10 μg/ml mocarhagin (final concentration) for 1 hour at 22° C. and digestion was stopped by adding EDTA to 0.01 M.
(§8) For cathepsin G digestion, glycocalicin in TS buffer containing 1 mM calcium chloride was incubated with 3.4 μg/ml cathepsin G (final concentration) for 4 hour at 22° C. and digestion was stopped by adding PMSF to 1 mM.

[2] = target: T1, platelet GPIbα (Homo sapiens, UniProt P07359); assay: as above; format: binding
T1 construct: endogenous in cells; host or cells: washed human platelets (blood-bank platelet concentrate)
Description: as §1, §2, §3, §4, §5, §6, §7, §8

B1: Y1 scFv: fully human scFv clone binding platelets and myelogenous leukemia cells; SEQ ID NO: 25, heavy chain CDR3 SEQ ID NO: 8 (protein, listed as Homo sapiens)
scFv: MKYLLPTAAAGLLLLAAQPAMAEVQLVESGGGVVRPGGSLRLSCAASGFTFDDYGMSWVRQAPGKGLEWVSGINWNGGSTGYADSVKGRFTISRDNAKNSLYLQMNSLRAEDTAVYYCARMRAPVIWGQGTLVTVSRGGGGSGGGGSGGGGSSELTQDPAVSVALGQTVRITCQGDSLRSYYASWYQQKPGQAPVLVIYGKNNRPSGIPDRFSGSSSGNTASLTITGAQAEDEADYYCNSRDSSGNHVVFGGGTKLTVLGAAAEQKLISEEDLNGAA
binding to washed platelets after O-Sialoglycoprotein endoprotease [1]: abolishes binding | binding to cathepsin G fragments of glycocalicin ([2]; Western blot): bound to the larger N-terminal fragment (His 1-Val-296), but not to the smaller N-terminal fragment (His1-Leu275) | binding after mocarhagin treatment of washed platelets ([2]; Western blot of platelet lysates): binding of Y1 to the N-terminal ˜45 kDa tryptic fragment

Reference: US20040002450A1, “Y17 - isolated molecules comprising epitopes containing sulfated moieties, antibodies to such epitopes, and uses thereof” (priority 2000, published 2004)
